Measured values reported in publication PMC12158487, “Tracing the aggregation pathway of the scaffold protein DISC1: Structural implications for chronic mental illnesses” (Journal of Structural Biology: X, 2025).
Residue numbers refer to the chain shown, from its start. In names and notes the source's numbering stands. Ends that are not written are not given here.

How the values were obtained:
[1] = target: DISC1 C-region L807-frameshift, His6 fusion (human) (UniProt Q9NRI5); assay: ITC; 10 µM His-tagged protein alone in the 200 µL cell, 20 °C, stirred at 300 rpm; heat flow of self-association followed in real time, peak area integrated
[2] = target: T1, DISC1 C-region (WT), His6 fusion (human), Q9NRI5; assay: dynamic light scattering; 10 µM protein, 20 °C, 500 µL sample, centrifuged at 21,000 x g before measurement; apparent hydrodynamic radii followed over time; conditions: remark: other sources report otherwise
T1 chain: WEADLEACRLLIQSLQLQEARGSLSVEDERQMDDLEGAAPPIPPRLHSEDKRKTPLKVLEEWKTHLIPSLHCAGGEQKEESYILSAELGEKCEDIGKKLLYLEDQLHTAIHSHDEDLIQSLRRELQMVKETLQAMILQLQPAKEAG

[3] = target: T1, DISC1 C-region (WT), His6 fusion …; assay: ITC; 10 µM His-tagged WT-C-region alone in the cell, 30 °C; heat flow of self-association followed in real time, peak area integrated; conditions: remark: other sources report otherwise
[4] = target: T1, DISC1 C-region (WT), His6 fusion …; assay: ITC; 10 µM His-tagged protein alone in the 200 µL cell, 20 °C, stirred at 300 rpm; heat flow of self-association followed in real time, peak area integrated; conditions: remark: other sources report otherwise
[5] = target: the molecule itself; assay: as above
[6] = target: the molecule itself; assay: ITC; one-week-old sample of S704C, 10 µM protein alone in the cell, 20 °C; heat flow of self-association followed in real time, peak area integrated

For “DISC1 C-region L807-frameshift, His6 fusion (from UniProt Q9NRI5 691-807) (domain or fragment)”, the dH [1] was -1060 kcal/mol.

B1: DISC1 C-region (WT), His6 fusion, Q9NRI5 691-836 (domain or fragment)
chain: T1 chain
With B1 the stoichiometry N [2] was 4, the dH [3] was -264 kcal/mol and the dH [4] was -547 kcal/mol.

B2: DISC1 C-region S704C, His6 fusion (domain or fragment, human, UniProt Q9NRI5 691-836, looked up)
chain: T1 chain with S14C
notes: Disrupted in schizophrenia 1 (DISC1), human, C-region, res; 691-836, numbered in the context of the full-length protein, with S704C; also called S704C C-region; source: E. coli BL21 (DE3) pLysE T1R, purified (Co2+-NTA)
B2 gave a dH [5] of -240 kcal/mol and a dH [6] of -869 kcal/mol.

B3: DISC1 C-region S713E, His6 fusion (domain or fragment, human, UniProt Q9NRI5 691-836, looked up)
chain: T1 chain with S23E
notes: Disrupted in schizophrenia 1 (DISC1), human, C-region, res; 691-836, numbered in the context of the full-length protein, with S713E; in the cited work it may be a phosphomimetic made by people (surmise); also called S713E C-region variant; source: E. coli BL21 (DE3) pLysE T1R, purified (Co2+-NTA)
B3 showed a dH [5] of -512 kcal/mol.

B4: DISC1 β-core (717-761), His6 fusion (domain or fragment, human, UniProt Q9NRI5 717-761, looked up)
chain: EDERQMDDLEGAAPPIPPRLHSEDKRKTPLKVLEEWKTHLIPSLH
modifications: also: His6 fusion, end not given here
notes: 717-761, numbered in the context of the full-length protein; also called β-core peptide; source: E. coli BL21 (DE3) pLysE T1R, purified (Co2+-NTA)
With B4 the dH [5] was -843 kcal/mol.
